{"source": "patent US20100221329A1", "about": "(SYNERGY PHARMACEUTICALS, published 2010)", "target": "guanylate cyclase C (human, UniProt P25092 24-1073)", "sequence (P25092 24-1073)": "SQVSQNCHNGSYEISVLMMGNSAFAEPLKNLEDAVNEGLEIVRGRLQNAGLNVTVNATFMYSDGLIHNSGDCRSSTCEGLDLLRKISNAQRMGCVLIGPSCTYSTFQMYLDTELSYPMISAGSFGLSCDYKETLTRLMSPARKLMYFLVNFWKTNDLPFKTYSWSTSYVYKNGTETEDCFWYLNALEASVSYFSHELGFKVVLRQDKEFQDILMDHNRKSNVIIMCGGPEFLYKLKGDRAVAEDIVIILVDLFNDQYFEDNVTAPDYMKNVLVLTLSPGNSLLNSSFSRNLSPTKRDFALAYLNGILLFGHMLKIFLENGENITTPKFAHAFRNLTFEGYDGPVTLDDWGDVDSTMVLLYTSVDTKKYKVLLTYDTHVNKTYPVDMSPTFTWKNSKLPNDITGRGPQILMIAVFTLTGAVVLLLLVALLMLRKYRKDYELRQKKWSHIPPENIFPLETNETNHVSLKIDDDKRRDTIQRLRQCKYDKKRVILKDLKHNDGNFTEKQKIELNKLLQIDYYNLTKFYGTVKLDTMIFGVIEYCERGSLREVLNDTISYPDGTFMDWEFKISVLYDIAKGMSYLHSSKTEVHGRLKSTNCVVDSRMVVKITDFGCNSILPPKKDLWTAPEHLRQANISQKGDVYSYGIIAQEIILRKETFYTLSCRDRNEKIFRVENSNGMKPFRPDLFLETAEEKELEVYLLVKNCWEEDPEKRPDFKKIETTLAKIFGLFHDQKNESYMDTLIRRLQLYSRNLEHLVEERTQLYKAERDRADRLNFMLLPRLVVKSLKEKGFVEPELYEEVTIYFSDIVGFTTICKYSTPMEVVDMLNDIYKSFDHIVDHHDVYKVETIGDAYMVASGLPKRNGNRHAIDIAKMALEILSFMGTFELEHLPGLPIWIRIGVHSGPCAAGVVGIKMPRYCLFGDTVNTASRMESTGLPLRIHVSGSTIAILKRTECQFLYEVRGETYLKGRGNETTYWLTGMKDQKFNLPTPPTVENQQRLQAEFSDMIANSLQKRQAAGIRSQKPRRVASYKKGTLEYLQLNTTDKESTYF", "test": "cell-based or functional assay", "note": "Bridges are numbered along the chain shown (N, C = ends). Where no end group is shown, it is not given here."}
{"binder": "NDECELCVNVACTGC (disulfide 4-12, 7-15)", "note": "[SP-338]", "values": [{"measurement": "stimulation of cGMP synthesis in T84 cells (peptide at 1.0 µM, 30 min), biological activity relative to SP-304", "result": "~80 % of the biological activity of SP-304"}]}
